Results: article PMC2173478

Biological target: cytochrome c
Assay: SEC

cytochrome c (natural protein)
stoichiometry N: 2
